Target: recombinant human IL-1β (human, UniProt P01584 117-269)
Test: cell-based or functional assay

B1: AB1 (antibody, V domains shown)
VH: QVTLKESGPGILKPSQTLSLTCSFSGFSLSTSGMGVGWIRQPSGKGLEWLAHIWWDGDESYNPSLKTQLTISKDTSRNQVFLKITSVDTVDTATYFCARARYDPPWFVDWGQGTLVTVSS
VL: DIQMTQTTSSLSASLGDRVTISCRASQDISNYLSWYQQKPDGTVKLLIYYTSKLHSGVPSRFSGSGSGTDYSLTISNLEQEDIATYFCLQGKMLPWTFGGGTKLEIK
Q: How did the “IC50 (read off the curve); % inhibition of IL-6 release from human fibroblasts stimulated with IL-1 beta at 100 pg/ml” value turn out when B1 was run?
A: ~200 pM

Reference: US20100055110A1 (XOMA TECHNOLOGY, published 2010)
